In PMC5895635:

What was measured:
Experiment in all cases: two-hybrid; β-galactosidase activity in yeast strain AH109 with the Yeast β-galactosidase Assay Kit (Thermo Fisher Scientific); pGBKT7 bait and pGADT7 prey; three biological replicates
[1] = target: MnMADS1 (mulberry 'Jinqiang 63' (JQ63) used for vector construction; gene identified in Morus notabilis)
pGBKT7-53 = target: pGBKT7-53
[2] = target: MnMADS33 (mulberry 'Jinqiang 63' (JQ63) used for vector construction; gene identified in Morus notabilis)
[3] = target: MnMADS50 (mulberry 'Jinqiang 63' (JQ63) used for vector construction; gene identified in Morus notabilis)

## MnMADS50 (natural protein)
[1]
  β-galactosidase activity: 15.3 units

## MnMADS33 (natural protein)
[1]
  β-galactosidase activity: 17.5 units

## pGADT7-T
pGBKT7-53
  β-galactosidase activity: 15.7 units

## MnMADS1 (natural protein)
[2]
  β-galactosidase activity: 15.1 units
[3]
  β-galactosidase activity: 16.3 units
